In publication PMC9482650, “Quantitative fragmentomics allow affinity mapping of interactomes” (Nature Communications, 2022):

T1: FRMPD1, Q5SYB0
T1 sequence (Q5SYB0 52-145, limits assumed, looked up): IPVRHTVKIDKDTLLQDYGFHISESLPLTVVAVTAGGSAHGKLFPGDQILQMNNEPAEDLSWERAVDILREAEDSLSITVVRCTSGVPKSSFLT

T2: TJP3_3, O95049
T2 sequence (O95049 375-456, limits assumed, looked up): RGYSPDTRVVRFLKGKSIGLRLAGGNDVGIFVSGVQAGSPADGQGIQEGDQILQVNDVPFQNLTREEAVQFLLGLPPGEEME

T3: GRIP1_5, Q9Y3R0
T3 sequence (Q9Y3R0 568-668, limits assumed, looked up): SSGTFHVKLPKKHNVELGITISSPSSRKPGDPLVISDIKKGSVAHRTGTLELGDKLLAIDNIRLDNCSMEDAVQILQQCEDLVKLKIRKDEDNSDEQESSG

T4: SHANK1, Q9Y566
T4 sequence (Q9Y566 658-767, limits assumed, looked up): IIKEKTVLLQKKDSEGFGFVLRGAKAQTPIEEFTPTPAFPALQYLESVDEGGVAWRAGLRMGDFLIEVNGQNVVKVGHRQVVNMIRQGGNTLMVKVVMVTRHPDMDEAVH

T5: APBA3_1, O96018
T5 sequence (O96018 389-490, limits assumed, looked up): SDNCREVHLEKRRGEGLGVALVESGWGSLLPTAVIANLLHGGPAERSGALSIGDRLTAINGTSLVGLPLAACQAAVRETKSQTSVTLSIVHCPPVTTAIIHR

T6: SYNJ2BP, P57105
T6 sequence (P57105 8-110, limits assumed, looked up): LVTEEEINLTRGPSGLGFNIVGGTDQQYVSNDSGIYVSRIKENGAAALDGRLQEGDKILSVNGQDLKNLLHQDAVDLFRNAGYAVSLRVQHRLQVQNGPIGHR

T7: APBA2_1, Q99767
T7 sequence (Q99767 563-664, limits assumed, looked up): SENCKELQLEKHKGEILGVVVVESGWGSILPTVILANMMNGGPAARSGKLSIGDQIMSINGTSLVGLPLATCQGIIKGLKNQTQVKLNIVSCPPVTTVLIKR

T8: SNTB1, Q13884
T8 sequence (Q13884 107-205, limits assumed, looked up): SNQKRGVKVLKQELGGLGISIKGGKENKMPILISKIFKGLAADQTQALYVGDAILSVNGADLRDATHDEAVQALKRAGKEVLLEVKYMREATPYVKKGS

T9: PDZD7_3, Q9H5P4
T9 sequence (Q9H5P4 857-944, limits assumed, looked up): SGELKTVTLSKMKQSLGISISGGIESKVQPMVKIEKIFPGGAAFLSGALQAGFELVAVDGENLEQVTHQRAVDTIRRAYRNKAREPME

T10: DLG3_1, Q92796
T10 sequence (Q92796 125-227, limits assumed, looked up): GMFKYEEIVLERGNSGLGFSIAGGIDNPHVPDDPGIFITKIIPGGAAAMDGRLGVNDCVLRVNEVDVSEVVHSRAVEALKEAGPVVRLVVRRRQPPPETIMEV

T11: ARHGAP21, Q5T5U3
T11 sequence (Q5T5U3 45-169, limits assumed, looked up): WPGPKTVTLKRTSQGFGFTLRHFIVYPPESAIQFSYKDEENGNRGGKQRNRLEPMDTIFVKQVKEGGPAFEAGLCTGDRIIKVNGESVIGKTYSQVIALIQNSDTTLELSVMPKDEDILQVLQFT

T12: DLG3_2, Q92796
T12 sequence (Q92796 221-321, limits assumed, looked up): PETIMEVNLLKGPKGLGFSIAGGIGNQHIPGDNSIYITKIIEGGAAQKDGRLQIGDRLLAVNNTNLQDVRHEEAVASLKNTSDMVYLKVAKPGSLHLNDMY

T13: DVL3, Q92997
T13 sequence (Q92997 244-331, limits assumed, looked up): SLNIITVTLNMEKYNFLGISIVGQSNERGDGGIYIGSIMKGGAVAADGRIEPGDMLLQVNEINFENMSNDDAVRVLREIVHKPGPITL


Assays:
Experiment in all cases: holdup assay
Parameters in all cases: key: below the threshold = too weak to quantify, mostly under pKd 3.1 to 4
Details in all cases: plain residues with an end cap or a label only (N-terminal biotin on a linker: ado-ado)
FRMPD1, Q5SYB0 = molecular target: T1, FRMPD1, Q5SYB0
TJP3_3, O95049 = molecular target: T2, TJP3_3, O95049
GRIP1_5, Q9Y3R0 = molecular target: T3, GRIP1_5, Q9Y3R0
SHANK1, Q9Y566 = molecular target: T4, SHANK1, Q9Y566
PDLIM1, O00151 = molecular target: PDLIM1, O00151
PDLIM1, O00151, sequence (O00151 1-87): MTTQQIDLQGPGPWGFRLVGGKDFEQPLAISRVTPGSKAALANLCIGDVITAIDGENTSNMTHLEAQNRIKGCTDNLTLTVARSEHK

APBA3_1, O96018 = molecular target: T5, APBA3_1, O96018
SYNJ2BP, P57105 = molecular target: T6, SYNJ2BP, P57105
MAST1, Q9Y2H9 = molecular target: MAST1, Q9Y2H9
MAST1, Q9Y2H9, sequence (Q9Y2H9 962-1065): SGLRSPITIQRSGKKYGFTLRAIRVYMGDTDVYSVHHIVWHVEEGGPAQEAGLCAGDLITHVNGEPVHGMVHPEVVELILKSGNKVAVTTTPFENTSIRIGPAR

GRID2IP_2, A4D2P6 = molecular target: GRID2IP_2, A4D2P6
GRID2IP_2, A4D2P6, sequence (A4D2P6 272-370): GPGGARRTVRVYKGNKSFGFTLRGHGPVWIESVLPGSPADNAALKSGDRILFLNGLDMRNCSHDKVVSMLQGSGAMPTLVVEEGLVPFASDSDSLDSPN

MAGI2_5, Q86UL8 = molecular target: MAGI2_5, Q86UL8
MAGI2_5, Q86UL8, sequence (Q86UL8 915-1017): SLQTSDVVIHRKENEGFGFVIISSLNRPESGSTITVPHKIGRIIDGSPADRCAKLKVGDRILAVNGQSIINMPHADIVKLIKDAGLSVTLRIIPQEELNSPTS

APBA2_1, Q99767 = molecular target: T7, APBA2_1, Q99767
GRIP2_4, Q9C0E4 = molecular target: GRIP2_4, Q9C0E4
GRIP2_4, Q9C0E4, sequence (Q9C0E4 446-548): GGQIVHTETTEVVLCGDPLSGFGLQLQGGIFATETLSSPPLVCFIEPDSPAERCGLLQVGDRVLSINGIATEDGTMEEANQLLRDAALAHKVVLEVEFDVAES

Inadl_4, Q8NI35 = molecular target: Inadl_4, Q8NI35
Inadl_4, Q8NI35, sequence (Q8NI35 547-651): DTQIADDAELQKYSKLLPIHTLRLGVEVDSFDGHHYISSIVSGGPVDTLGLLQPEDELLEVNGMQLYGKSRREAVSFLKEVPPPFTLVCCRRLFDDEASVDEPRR

MAGI2_6, Q86UL8 = molecular target: MAGI2_6, Q86UL8
MAGI2_6, Q86UL8, sequence (Q86UL8 1141-1229): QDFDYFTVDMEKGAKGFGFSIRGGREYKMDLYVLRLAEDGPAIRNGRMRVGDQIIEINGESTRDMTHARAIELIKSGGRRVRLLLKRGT

HTRA1, Q92743 = molecular target: HTRA1, Q92743
HTRA1, Q92743, sequence (Q92743 360-477): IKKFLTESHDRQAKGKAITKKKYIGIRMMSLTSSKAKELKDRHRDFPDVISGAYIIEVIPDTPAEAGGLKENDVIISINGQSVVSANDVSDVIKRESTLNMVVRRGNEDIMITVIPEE

DLG1_2, Q12959 = molecular target: DLG1_2, Q12959
DLG1_2, Q12959, sequence (Q12959 314-412): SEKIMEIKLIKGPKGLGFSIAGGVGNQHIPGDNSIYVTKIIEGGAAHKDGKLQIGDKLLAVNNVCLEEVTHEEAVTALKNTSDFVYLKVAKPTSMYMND

SNTB1, Q13884 = molecular target: T8, SNTB1, Q13884
PDZD7_3, Q9H5P4 = molecular target: T9, PDZD7_3, Q9H5P4
SCRIB_2, Q14160 = molecular target: SCRIB_2, Q14160
SCRIB_2, Q14160, sequence (Q14160 857-960): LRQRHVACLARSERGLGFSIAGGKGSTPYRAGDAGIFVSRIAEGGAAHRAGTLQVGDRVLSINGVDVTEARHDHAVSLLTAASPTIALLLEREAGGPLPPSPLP

DLG3_1, Q92796 = molecular target: T10, DLG3_1, Q92796
ARHGAP21, Q5T5U3 = molecular target: T11, ARHGAP21, Q5T5U3
DLG3_2, Q92796 = molecular target: T12, DLG3_2, Q92796
DVL3, Q92997 = molecular target: T13, DVL3, Q92997
Inadl_6, Q8NI35 = molecular target: Inadl_6, Q8NI35
Inadl_6, Q8NI35, sequence (Q8NI35 1058-1167): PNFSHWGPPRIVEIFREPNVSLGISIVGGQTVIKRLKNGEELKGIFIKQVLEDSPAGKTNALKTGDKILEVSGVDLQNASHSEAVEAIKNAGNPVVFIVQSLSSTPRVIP

pKd (FRMPD1, Q5SYB0) | pKd (TJP3_3, O95049) | pKd (GRIP1_5, Q9Y3R0) | pKd (SHANK1, Q9Y566) | pKd (PDLIM1, O00151) | pKd (APBA3_1, O96018) | pKd (SYNJ2BP, P57105) | pKd (MAST1, Q9Y2H9) | pKd (GRID2IP_2, A4D2P6) | pKd (MAGI2_5, Q86UL8) | pKd (APBA2_1, Q99767) | pKd (GRIP2_4, Q9C0E4) | pKd (Inadl_4, Q8NI35) | pKd (MAGI2_6, Q86UL8) | pKd (HTRA1, Q92743) | pKd (DLG1_2, Q12959) | pKd (SNTB1, Q13884) | pKd (PDZD7_3, Q9H5P4) | pKd (SCRIB_2, Q14160) | pKd (DLG3_1, Q92796) | Binder | further results
below the threshold | 4.44 | below the threshold | 3.55 | below the threshold | below the threshold | below the threshold | below the threshold | 4.33 | below the threshold | below the threshold | below the threshold | below the threshold | 3.73 | 4.93 | below the threshold | below the threshold | below the threshold | below the threshold | below the threshold | SGDGKTSVWI [GJC1, P36383] | pKd (ARHGAP21, Q5T5U3): 3.58; pKd (DLG3_2, Q92796): 4.16; pKd (DVL3, Q92997): 4.23; pKd (Inadl_6, Q8NI35): 3.69
below the threshold | below the threshold | below the threshold | 3.68 | below the threshold | below the threshold | below the threshold | 4.46 | 3.65 | below the threshold | below the threshold | below the threshold | below the threshold | 3.97 | 4.04 | 4.42 | 4.57 | 4.3 | 3.68 | 3.48 | EPAKETTTNV [SLC2A3, P11169] | pKd (ARHGAP21, Q5T5U3): 4.06; pKd (DLG3_2, Q92796): 4.15; pKd (DVL3, Q92997): below the threshold; pKd (Inadl_6, Q8NI35): below the threshold
below the threshold | below the threshold | below the threshold | 3.54 | below the threshold | below the threshold | 4.72 | 3.94 | 4.16 | below the threshold | below the threshold | below the threshold | below the threshold | 3.58 | below the threshold | below the threshold | below the threshold | 4.1 | below the threshold | below the threshold | GNDPDRGTSI [GRID2, O43424] | pKd (ARHGAP21, Q5T5U3): below the threshold; pKd (DLG3_2, Q92796): 4.25; pKd (DVL3, Q92997): below the threshold; pKd (Inadl_6, Q8NI35): below the threshold
below the threshold | below the threshold | below the threshold | below the threshold | below the threshold | below the threshold | 4.15 | below the threshold | below the threshold | below the threshold | below the threshold | below the threshold | below the threshold | below the threshold | below the threshold | 3.78 | 3.94 | below the threshold | below the threshold | below the threshold | PGKKPEDSRV [SLCO2B1, O94956] | pKd (ARHGAP21, Q5T5U3): 3.84; pKd (DLG3_2, Q92796): below the threshold; pKd (DVL3, Q92997): below the threshold; pKd (Inadl_6, Q8NI35): below the threshold
below the threshold | below the threshold | below the threshold | below the threshold | below the threshold | below the threshold | below the threshold | below the threshold | below the threshold | below the threshold | below the threshold | below the threshold | below the threshold | below the threshold | 4.03 | below the threshold | below the threshold | 3.52 | below the threshold | below the threshold | MLPANYVEAI [NEB, P20929] | pKd (ARHGAP21, Q5T5U3): below the threshold; pKd (DLG3_2, Q92796): 4.11; pKd (DVL3, Q92997): below the threshold; pKd (Inadl_6, Q8NI35): below the threshold
below the threshold | below the threshold | below the threshold | 3.76 | below the threshold | below the threshold | 4.75 | 4.28 | 4.17 | 3.96 | below the threshold | below the threshold | below the threshold | 3.97 | below the threshold | 5.03 | 5.08 | 5.51 | 4.41 | 3.81 | TKDKVQETQI [LRRC4, Q9HBW1] | pKd (ARHGAP21, Q5T5U3): 4.05; pKd (DLG3_2, Q92796): 4.57; pKd (DVL3, Q92997): below the threshold; pKd (Inadl_6, Q8NI35): 3.85
